# pKd: −log10 of the molar value.
# Key:
# [1] = biological target: Plasmodium falciparum myosin A tail domain interacting protein, residues 61–204 (PfMTIPΔ60) (Plasmodium falciparum) (UniProt Q8I4W8); test: differential scanning fluorimetry; 5 μM PfMTIPΔ60 with 200 μM peptide in buffer A (20 mM HEPES pH 7.5, 50 mM NaCl, 1 mM TCEP), 10× SYPRO Orange, 15–80 °C
# [2] = biological target: Plasmodium falciparum myosin A tail domain interacting protein, residues 61–204 (PfMTIPΔ60) (Plasmodium falciparum) (UniProt Q8I4W8); test: ITC; 303 K; cell with about 200 μL of 20 μM PfMTIPΔ60 in buffer A (20 mM HEPES pH 7.5, 50 mM NaCl, 1 mM TCEP); peptide added in 2 μL injections from 250 μM; single site fit; n=1
Substance,Tm of the complex [1],pKd [2]
acetylated peptide control1 (acetyl-capped myoA tail from Leu 805) (from UniProt Q8IDR3 805-818),45.4 °C,
acetylated peptide control2 (acetyl-capped myoA tail from Leu 804) (from UniProt Q8IDR3 804-818),54.5 °C,
acetylated peptide control3 (acetyl-capped myoA tail from Ser 803) (from UniProt Q8IDR3 803-818),54.9 °C,6.97
